What was measured:
BiP-Sepharose [1] = target: T1, BiP-Sepharose (Homo sapiens, UniProt P11021); experiment: Experiment 2: BiP-Sepharose extraction from six synovial fluid samples of RA patients and mass spectrometry; format: binding; settings: BiP-Sepharose eluate, synovial fluid of RA patient
T1 construct: The human BiP gene except the signal peptide encoding region was obtained from Geneart (Germany); linker […]; made in house; host or cells: HEK 293E cells, transient transfection, PABC674 vector; secreted into the medium
Experimental: (§1) Six samples were incubated with the BiP-Sepharose, IgIV-Sepharose and the control-Sepharose: Normal pooled plasma, plasma of a patient I or of a patient II, with AL amyloidosis, serum of a patient III with RA (Rheumatoid Factor (RF) titer 682), control serum and synovial fluid of a patient IV with RA (RF titer 23). All samples were diluted 20× in HBS and applied to 200 μl beads in two volumes of 500 μl. One volume was incubated for 4 h at RT and supernatant was discarded after centrifugation (2 minutes at 1400 rpm). Subsequently, the second volume was applied to the same matrix and incubated overnight on a roller device at 4° C. […] To collect the eluates, the matrices were centrifuged and the two eluates were pooled for each sample.
(§2) Protein digests were desalted as described (Rappsilber et al., 2003), vacuum dried and dissolved in 2.5% formic acid.
(§3) For analysis of peptide mixtures, an Agilent 1100 HPLC system (Agilent Technologies) connected to a Thermo Finnigan LTQ-MS (Thermo Electron, Bremen, Germany) was used. Protein digests were injected on a trap column (Reprosil C18 RP (Dr Maisch, Germany), 20 mm×100 μm I.D.) at 5 μl/minute. Subsequently, the peptides were transferred with a split-reduced flow rate of 100 nL/minute solvent A (0.1 M acetic acid) on the analytical column (Reprosil C18 RP, 20 cm×50 μm I.D.). […] The column effluent was directly introduced into the ESI source of the mass spectrometer via a butt-connected nano-ESI emitter (New Objectives, Woburn, Mass.). The mass spectrometer was operated in the positive ion mode and parent ions were selected for fragmentation in data-dependent mode.
(§4) After mass spectrometric measurements, peak lists were generated using BioWorks software (Thermo Electron, Bremen, Germany). Protein identification was performed using Mascot software (www.matrixscience.com) by searching the IPIhuman database (version 3.24, downloaded from ftp://ftp.ebi.ac.uk/pub/databases/IPI/current) using the following settings: fully tryptic peptides, peptide tolerance 0.8 Da, MS/MS tolerance 0.9 Da, 1 missed cleavage allowed, carbamidomethyl (Cys) and oxidation (Met) as fixed and variable modification, respectively. The Scaffold software package (www.proteomesoftware.com) was used to parse the data and to filter peptides at a confidence level of 95%, allowing only protein identification with at least 2 peptides identified.
Those samples are listed below: • 1. […] One difference when compared to the protocol described above is that now with the twelve samples, elution buffer comprised 1 M NaCl. Again, a misfolded protein or a protein binding to misfolded protein is identified uniquely in the synovial fluid when no or a relatively very low number of fragments are detected in eluates of control-Sepharose.

human BiP = target: T2, human BiP (Homo sapiens, UniProt P11021); experiment: ELISA: binding of BiP-FLAG-His to immobilized (misfolded) protein ligands; settings: ligands coated at 5 μg/ml; 6BB peptides and oxLDL 50 μg/ml
T2 construct: The human BiP gene except the signal peptide encoding region was obtained from Geneart (Germany); linker […]; made in house; host or cells: HEK 293E cells, transient transfection, PABC674 vector; secreted into the medium
Experimental: Enzyme Linked Immunosorbent Assay for Testing of Chaperone Binding to Misfolded Proteins
Binding of chaperones to immobilized (misfolded) protein ligands was determined using an enzyme linked immuno sorbent assay (ELISA) approach. For this purpose 50 μl/well of potential ligands at indicated concentrations or coat buffer only for control and background measurement purposes, were coated overnight at 4° C. or coated for 1 h at room temperature, with motion, in 50 mM NaHCO3 pH 9.6 (coat buffer). In general, ligands were coated at 5 μg/ml, unless stated otherwise. For example, BiP binding peptides 6BB# and oxLDL were coated at 50 μg/ml. Native haemoglobin (Sigma-Aldrich, H7379), albumin, IgIV Gammagard and ovalbumin controls were prepared from lyophilized stocks. The controls were prepared by dissolving lyophilized proteins at 1 mg/ml in PBS upon resuspending by pipetting, followed by a 30 minutes period at the roller device, at room temperature. The protein solutions were centrifuged for 10 minutes at 16,000*g and diluted in coat buffer. After coating the plates were washed at least three times with 50 mM Tris-HCl pH 7.3, 150 mM NaCl, 0.1% v/v Tween20, and blocked with Blocking reagent (Roche Diagnostics, Almere, The Netherlands; 11112589001), for 1 h at room temperature, with motion. Plates were washed three times and incubated in triplicate with indicated chaperone dilution series, at 50 μl/well, for 1 h at room temperature, with constant motion. For HSP90, 5 mM DTT is incorporated in the binding buffer (PBS/0.1% Tween20) to avoid unwanted disulfide bond formation of the HSP90. Plates were washed three times and incubated with anti-FLAG antibody (mouse antibody, M2, peroxidase conjugate; Sigma, A-8592) for BiP-FLAG-His, anti-His-tag antibody (Mouse Monoclonal Antibody, Cat. No. 70796, Novagen [0.2 mg/ml]) for HSP60, a 1:1 mix of 500-fold diluted anti-HSP90beta antibodies (Stressgen, SPA-643 [mouse monoclonal IgM], SPA-646 [rabbit polyclonal]) for HSP90 and an anti-DnaK antibody (Stressgen, 023SPA-880D [mouse monoclonal antibody]) for DnaK. After four wash cycles, secondary antibodies were added to the wells when required, 50 μl/well, for 45′ at room temperature, with motion. RAMPO and SWARPO were used at 3000 times dilution. […] In a second experiment with more immobilized misfolded proteins and controls, the detection of bound HSP90 with the mix of two anti-HSP90 antibodies was achieved by mixing 1:1500 SWARPO with 1:3000 RAMPO. After 5 washes with wash buffer followed by two washes with PBS, binding of antibodies was assessed. Bound anti-FLAG-PO, peroxidase-conjugated rabbit anti-mouse immunoglobulins (RAMPO, P0260, DAKOCytomation, Glostrup, Denmark) or peroxidase-coupled swine anti-rabbit immunoglobulins (SWARPO, P0217, DAKOCytomation) was visualized with tetramethylbenzidine (TMB, #45.01.20,/#45.014.01, Biosource, Nivelles, Belgium). The reaction was stopped after 5 minutes with 1% H2SO4 in H2O. Plates were read at 450 nm. Triplicates were averaged and standard deviations calculated. Background signals obtained with buffer-coated wells were subtracted (binding of primary antibody to empty wells), as well as background signals obtained with ligand-coated wells in which the chaperones were omitted (binding of primary and secondary antibody to coated ligands). Subsequently, sub-optimal concentrations of chaperones for binding to misfolded protein ligands are determined, and these concentrations are used for inhibition studies. […] We have previously identified that a sub-fraction of IgIV molecules has affinity for misfolded proteins comprising crossbeta structure (pending patent application). Moreover, we identified that the sub-fraction of IgIV molecules directly binds to crossbeta structure and/or crossbeta structure induced conformation (not shown; pending patent application). […]

BiP-Sepharose [2] = target: T1, BiP-Sepharose; experiment: BiP-Sepharose extraction of proteins from patient plasma, serum, synovial fluid and mass-spectrometric identification; format: binding
Experimental: BiP was coated on CNBr-Sepharose (GE-Healthcare, Amersham Biosciences). Immobilization of BiP was performed essentially as described elsewhere in this application for NHS-Sepharose. CNBr-matrix was dissolved at 200 mg/ml in 1 mM HCl and treated the same as the NHS-matrix, except for an additional 5 minutes activation step in 1 mM HCl on a roller device before washing in this buffer. BiP was diluted in immobilization buffer (50 mM NaCl and 40 mM NaHCO3) to a concentration of 820 μg/ml. A total volume of 2 ml BiP solution (1640 μg BiP) was incubated with 360 mg beads. Negative control matrix was exposed to immobilization buffer, only. After overnight immobilization matrix was blocked with Tris and washed.
as §1, §2, §3, §4

[3] = compared to AL amyloidosis patient II

T2 sequence (P11021 19-654): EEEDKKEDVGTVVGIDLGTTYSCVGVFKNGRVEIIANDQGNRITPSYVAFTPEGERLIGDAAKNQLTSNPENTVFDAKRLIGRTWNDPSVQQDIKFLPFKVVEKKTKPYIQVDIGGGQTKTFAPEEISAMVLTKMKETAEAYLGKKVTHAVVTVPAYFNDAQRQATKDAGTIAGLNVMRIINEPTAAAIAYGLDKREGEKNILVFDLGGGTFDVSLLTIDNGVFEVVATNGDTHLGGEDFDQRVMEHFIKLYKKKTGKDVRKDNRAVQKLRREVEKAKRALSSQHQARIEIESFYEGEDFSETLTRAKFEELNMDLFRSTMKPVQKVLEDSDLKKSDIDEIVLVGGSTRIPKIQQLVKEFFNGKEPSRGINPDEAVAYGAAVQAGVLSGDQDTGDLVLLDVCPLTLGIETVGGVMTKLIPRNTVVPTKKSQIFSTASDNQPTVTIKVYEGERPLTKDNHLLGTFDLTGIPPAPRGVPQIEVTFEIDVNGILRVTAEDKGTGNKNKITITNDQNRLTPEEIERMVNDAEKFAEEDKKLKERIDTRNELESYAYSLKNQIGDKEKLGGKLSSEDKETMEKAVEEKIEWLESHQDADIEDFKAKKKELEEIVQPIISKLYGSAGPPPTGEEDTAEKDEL
T1 sequence (P11021 19-654): as above

Substance	# of unique peptides (BiP-Sepharose [1]; Sample 1B)	# of unique peptides (BiP-Sepharose [1]; Sample 3B)	further results
187 kDa protein, complement component 3	2	–	# of unique peptides (BiP-Sepharose [1]; Sample 5B): 1
Apolipoprotein A-I precursor	3	8	–
Apolipoprotein A-II precursor	1	–	–
Apolipoprotein B-100 precursor	9	12	–
Aβ1-40: amyloid-β 1-40 peptide coated in Example 7	–	–	Binding of concentration series of BiP to coated ligand (human BiP): has been established
Clusterin precursor	1	1	# of unique peptides (BiP-Sepharose [1]; Sample 2B): 1
HSPA5 protein/BiP	21	19	# of unique peptides (BiP-Sepharose [1]; Sample 2B): 12; # of unique peptides (BiP-Sepharose [1]; Sample 4B): 10; # of unique peptides (BiP-Sepharose [1]; Sample 5B): 10; # of unique peptides (BiP-Sepharose [1]; Sample 6B): 17
Haptoglobin precursor	1	3	–
Heat shock 70 kDa protein 1L	1	1	# of unique peptides (BiP-Sepharose [1]; Sample 2B): 1; # of unique peptides (BiP-Sepharose [1]; Sample 5B): 1; # of unique peptides (BiP-Sepharose [1]; Sample 6B): 1
IGHG4 protein, immunoglobulin heavy constant gamma 4	4	–	# of unique peptides (BiP-Sepharose [1]; Sample 2B): 1
IGKV1-5 protein, immunoglobulin kappa variable 1-5	3	5	–
Ig kappa chain V-IV region Len, immunoglobulin kappa variable 4-1	–	1	–
Isoform 1 of Fibrinogen alpha chain precursor	3	–	–
KRLEVDIDIK [FP10, synthetic fibrin peptide without crossbeta structure (negative control)]	–	–	Binding of concentration series of BiP to coated ligand (human BiP): did not bind
Neutrophil defensin 1 precursor	–	1	# of unique peptides (BiP-Sepharose [1]; Sample 2B): 1
Serotransferrin precursor	–	–	# of unique peptides (BiP-Sepharose [1]; Sample 5B): 1
Single-chain Fv (Fragment), Ig heavy chain V-III region TRO	2	–	–
Vitronectin precursor	1	–	# of unique peptides (BiP-Sepharose [1]; Sample 5B): 2; # of unique peptides (BiP-Sepharose [1]; Sample 6B): 1
complement factor H isoform I [IPI00029739]	–	–	Specific binding to BiP-Sepharose from normal pooled plasma (BiP-Sepharose [2]; [3]): specifically bound
fibronectin 1 isoform 4 preproprotein	10	–	# of unique peptides (BiP-Sepharose [1]; Sample 2B): 2; # of unique peptides (BiP-Sepharose [1]; Sample 5B): 2
haptoglobin [IPI00431645]	–	–	Specific binding to BiP-Sepharose from normal pooled plasma (BiP-Sepharose [2]; compared to AL amyloidosis patient I): specifically bound; Specific binding to BiP-Sepharose from normal pooled plasma (BiP-Sepharose [2]; [3]): specifically bound; Specific binding to BiP-Sepharose from control serum (BiP-Sepharose [2]; compared to RA patient III): specifically bound
thrombin	–	–	Binding of concentration series of BiP to coated ligand (human BiP): did not bind

Source: patent US20100015126A1, “Methods of Binding of Cross-Beta Structures By Chaperones” (priority 2006, published 2010)
